From the domain aggregation screens of Martell et al. (2025)

Test: soluble fraction after stress (log2 fold change); higher = more stays soluble; pooled small domains, quantitative proteomics
Details: stress: 50 degC
Procedure, shortened: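 Pooled custom libraries of small protein domains were measured in a high-throughput format, with quantitative proteomics as the read-out. Each library was stressed at 50°C. Aggregation propensity is given as the base-two logarithm of the fold change in how much of each protein stays soluble after the stress. Higher values mean a larger share of the protein remains in solution.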

Sequence | soluble fraction (log2)
HMPTQGELAILRVLWEQGPSTVRAVWEKLNSQSGTGYTTALKLMQIMAQKGLVSRDESQKTHVYRA | -1.42
HMNSNQESFENWLSANSWYNKDRAMRVFADSLGQELRNSGVSFEKALTQISAEVRKEFSHKFQ | -0.163
HMVDPELFIWVESSKEPVYHLAYKIELFVHSTDPQDDVPVHRWQVFVDAHNGNILDKFDEVR | -0.159
HMTNADRFIGEEAMVIKKIDDINNDGQVKIAGQVWSAVSEDKSPLEEGTIVKVIAIRGVKLVVEPVS | 0.0662
HMVGIAEAMKHIADEDYGDLSAIFKQIFSDTDGGRNFSDAIRTQMRSTDSSGLRKVLSTLIMSIEE | -0.498
HMQVPFGFQRNPSTGTLEEKAEEQLIINQVLSLKNSGIGVSEISKRLGELSVSRIYRIINTAKKNAS | -0.366
HMLKAKKIPVSDLEKFKGIVAEDVVSKAKALILPRGSNLSWLSNVAKKNLIAKLKAEGIEYISVYSS | 0.134
HMGEAAIYRINILINNLNVRSGPGTLYPRLRRADFPGEYDIFEEKNGFGRISNTKSEWVSLNTQYVQRLT | -0.549
HMKYTVKSPLPGVIMSVLVKVGDTVKASDTVISLEAMKMENAIHAGRDGKVTSIDVNVGDSVLEGHTLVTI | -0.386
HMKRNTKAEVLEILLNSGETPVSGERLAENLGISRNAVWKAVTALKEDGYNISAKRNSGYILNKS | -0.0063
HMDLTKLFDHDSEYGKSYVFGKITDEMIARAEQTLGYRMPASYIELLKVQNGGMISDELDESWLTTIYGIG | -0.24
HMDRFRYYITEDSVQRGTYPYVDETTLKRFTSQLHKYEQGMISAYGYLEYSKPLTAEQIKDYTLMPSP | 0.0317
HMNAEQLAQVRRQKIGFIFQDFRLFPEYTVRDNILIPFYLDHRAPDEQMLHKLTGILGIAGKLHSRPAQL | -0.0698
HMAAQDIILKRNAEQIEAIVKEITDTDVKYRKFTNTEGVTYSIRRSEVFSITYENGTMDLFA | 0.0231
HMTEKPTREAHILDQLARDGGVLVAALSRELGVSEVTIRSDLRDLEAAGLLQRTHGGAQASSFQTVL | -0.0142
HMEVLTEPKVQSIDTHGEKSTFVIESPNPLQPDEIAKLVGADGISVRVDRTWLKSHRDSTWTYSILTVS | -0.00748
HMFVTFFHELKSAGVPVSLREYLTLMEAMDRDLASRRVEEFYYLARTALVKDERNLDKFDRVFGHVFKGL | -3.65
HMTHANAALTPRHRLKVARLVVDEGWPVSEVAARFQVSWPTVKRWADRYRAGQSMQDRSSRP | -1.13
HMKALDTVLSEIPGLGPVRIKQLLKVFGSVDAIRKASLQDLQQIEGIGPKLAQTIYEYFHQP | ≥ 0.62
HMIVDARNREINLGSHVRYVDTGTVGEVTDSKVENDASWVKIDKTNLWYLANKLELLNDEDFKT | 0.0653
HMEFGEVLAQLRQKRHISQAELGRAIFVSGGTISNYEKGVHFPDVEKLLLLADYFNVTTDYLLGRT | -2.04
HMNFDVETGLPLDSRLVVSGLIQRDGINSLKRYEGMIVYVESEAKNYQLVGGISNTDWAELS | -0.916
HMLRIIDYNRVVKDLNGLTPEQLLEKLAESFTVEDKGTEEYRPTELHNFSMYLGGHWYSLTAKPGTYDDND | -0.937
HMGPRKAGSEATRQKILDAAEILFAERGFHSVSVRDITTEAGVDVALINYHFGSKQLLFETVFMRR | -0.331
HMNTIIHPIRLAYVDSGSIKSMAEQAEIDVKILTSEANSQIFWAIGDEKQIDRLYNLISQVDIIQNK | -0.211
HMNQPRQRKVIFELIDERNALERVLMHFAHLEKQVEKIDERKYQVTLYYDKEDETEILIRVLSFG | -1.15
HMQRAEQLPAELAAVFRAETEAWGFFERQPPGYQRVAIHWVASAKQEATRLRRLAKLIEESAAGRR | -1.7
HMSTNDIFISGDKLVLKNTTGQMDVFDMAGRKVLSSTNNVSEMNVSSLPKGVYVVSASIGGSKMKAKVYK | 0.527

Sequence | soluble fraction (log2)
HMGAVGISQKVTSLETAVLGKNFAKDPLIDRVARLEQTVLPKQAEANASLSLPERVSKLLEKVPIAAG | 0.223
HMNNIIYLIANKLDVGKRLDQFITIRTEFSRQRVINLIEDGYVKLNNKIINLKKYKIKGDEKIEITIPEIR | -0.542
HMRIWTISDLYKNVEDKKVSLAVFSEDNDSNKVNVLDINGEEHSVNLLKADLPTLVDLFRKNDVRFAVRSN | 0.12
HMVFLPDEIFRLKVIKAGEGPEQGVGYLDDGTMVVIEGARDRIGDELEVRVTSTLQTNAGKMIFTKFE | -0.186
HMNVAVPTPADKRKVRVMKADINAKLRVNDANGAYAVYEELKEWVTLKGFTEWNDDLSKLSETMGSMKRKV | -0.0289
HMTFGENLIRLRRQQGLSQEQLGMRIGVSRQTVSKWELNDTTPEMEKLIALADLFGLSLDELTGRV | -0.115
HMKALYNLDYEKPLSGSYYTETTARAAVPTDIRKLGLIITYKTDATTNITEQFVGSSISAWTTSGNWKSLG | -0.424
HMGIEQVELASRVRDAVDSLPHHLREIILLSYFQKMSYNQIAETLQVPLGTVKSRLHAAVASFAQAWTQSS | -0.706
HMQTTQQLIRNLRLKQAATLLADKRHSITEVATLTGFTHPTYFATAFREMFGVSPSEYMEQHI | -0.86
HMQNELAEARSQLAERKNIDQAKLILMKKRNISEPEAYKLLRSHAMQTNRRVAEVAESIITAESLLG | 0.0394
HMKVSNWYFNGAPSATTPPTSQWTTEKDKKAHIGDTFTSLDKSPSPNAGKSWRYTPSYTWEEIV | 0.344
HMSHRVGDVVELTAVRMNDQGVFLDAGTGNTSDDILLHKHQMTSPVSVGDKVKVQLYLDAKNRITASMKL | -0.000204
HMPELTASDEADLKALVGGDQGFEQMANWARSNLGEEEINRFDAVVDSNNKDAIHMAIQAMQARMNA | 0.0174
HMKDTNENLMKMLALLIHAAKIDENYSDEEKELIVNFAEMSSKENLNREQILSIIKSAEEYE | -0.702
HMEQSGDELKTWVDQAIAAYPEKVKEYQQGKKGLLALFIGEVMKRSKGTADPKKVNQLVTEALS | 0.045
HMEQIPEEYKKIYSLITDIPININDIAKKSLLELREVSSKLTMLELDGKVVKLPGNMYIRGDL | 0.0726
HMEDEEILNEIRHTEQYVYYFGNYIMEHHVSRGLSKEKVIASLARELQIEIADIREDFDGMIEQIKTNILN | -0.163
HMQDELSSSVIEEAVVVLLLRAANIDGKKDEQEIEAIKRLIIQQFNYDEEKADILITSASEK | -0.218
HMAYVDWYENKQPTHEEAFKKLLGRIHPGAIVLLHSTSKTNGEILDELLTKWEEMGYRFGTLDELTGN | -1.18
HMENMTLGQRIQALRKQHGLSQEGLGERLGVSRQAISRWEMDGAVPEVDKLIAMARLFGVSLNQLLGVE | -0.193
HMEKLSMLKIKELFRLAIEMNLSHRQIAQSLNVSHTVVNRYLKRFKKSNLSYETLLKLGDKEIISALYEH | -2.29
HMAISSADRIVAELRTWISGASPGTQLPSSRTLAARYGASPVTVQKALHTLAGMGLVEARPGAGTFVRRQS | -0.189
HMNREENIQIGRDLLERELRKQGMDLQENLRQEVLLDGAKKLGFNNTDDLLAAIGDLKVTPAMFIGKIA | 0.0695
HMSILEIFGRNVQKYRKEQRLSQEKLAEYAGLHRTYIGMIERAEKNITLVNIEKIAKALNINLTKLLE | -3.14
HMEMDITIQMRTLVEELNRASDAYYNGRGELMTDYEWDAKFDQLKQLESQSGVVLPDSPTHRV | -0.162
HMFGELTPDTAKRFLLTAREQEMASLIAQGLTNKEIAFRLGISEATVRTHIYNLFQKVGVQSRIELLNVLH | -0.289
HMTDTSFPRLGAPEEELLSFLAKWEIDAEDAHYTKFSLYYQSTGKMMRDWKATWRAWKERQSELNAQR | -1.68
